Where no end group is shown, it is not given here. The star is where a group is joined. Biotin = O=C1N[C@H]2[C@H](CS[C@H]2CCCCC(=O)*)N1; 22‑Å spacer = not defined here

Test [1] deals with surface-expressed HLA-DR. Kind of test: Specificity of peptide binding to surface-expressed HLA-DR. Also on record: species or system human. As to conditions: amino-terminal biotin via 22-A spacer.
Test [2] concerns the target HLA-DR4 (DRB1*0401) on Priess cells (human (endogenous in Priess)). Description: flow cytometry on cells. In general terms: In flow cytometry, cells or beads pass a laser one at a time.
Test [3] concerns the target HLA-DR7 (DRB1*0701) on Mann cells (human (endogenous in Mann)). Description: flow cytometry on cells.
For test [4], the target named is HLA-DR8 (DRB1*0801) on 23.1 cells (human (endogenous in 23.1)). Kind of test: flow cytometry on cells.
Test [5] has as its target HLA-DR3 (DRB1*0301) on WT-20 cells (human (endogenous in WT-20)). Description: flow cytometry on cells.
The target in test [6] is HLA-DR2 (DRB1*1501/DRB5*0101) on MST cells (human (endogenous in MST)). Description: flow cytometry on cells.
Test [7] deals with HLA-DR1 (DRB1*0101) on LG-2 cells (human (endogenous in LG-2)). Kind of test: flow cytometry on cells.

As to “VGSDWRFLRGYHQYA [HLA-A2-1ike peptide 103-117]”, the “effect of biotinylation on binding (in words)” value in test [1] is given as “interfered with the normal mode of binding”.

Turning to “biotinylated synthetic Ig kappa chain C region peptide 188-202”, the relative mean log fluorescence is 189 in test [2] and 171 in test [3].

With {Biotin-22‑Å spacer}-LPKPPKPVSKMRMATPLLMQALPM (reading uncertain) [biotinylated synthetic invariant chain (Ii) peptide 97-120], the relative mean log fluorescence in test [2] came out at 215; in test [3], 288.

Turning to {Biotin-22‑Å spacer}-APSPLPETTENVVCALG (reading uncertain) [biotinylated synthetic HLA-DR alpha chain peptide 182-198], the relative mean log fluorescence in test [4] is 172; in test [5], 176; in test [2] it was 189; in test [6] it was 148; in test [7] it was 345.

The values are drawn from PMC2191090 (The Journal of Experimental Medicine, 1993).
